Test results as given in IntAct's records for PubMed 17679699.

B1: Catenin beta-1 (Homo sapiens), P35222 (parent)
chain: MATQADLMELDMAMEPDRKAAVSHWQQQSYLDSGIHSGATTTAPSLSGKGNPEEEDVDTSQVLYEWEQGFSQSFTQEQVADIDGQYAMTRAQRVRAAMFPETLDEGMQIPSTQFDAAHPTNVQRLAEPSQMLKHAVVNLINYQDDAELATRAIPELTKLLNDEDQVVVNKAAVMVHQLSKKEASRHAIMRSPQMVSAIVRTMQNTNDVETARCTAGTLHNLSHHREGLLAIFKSGGIPALVKMLGSPVDSVLFYAITTLHNLLLHQEGAKMAVRLAGGLQKMVALLNKTNVKFLAITTDCLQILAYGNQESKLIILASGGPQALVNIMRTYTYEKLLWTTSRVLKVLSVCSSNKPAIVEAGGMQALGLHLTDPSQRLVQNCLWTLRNLSDAATKQEGMEGLLGTLVQLLGSDDINVVTCAAGILSNLTCNNYKNKMMVCQVGGIEALVRTVLRAGDREDITEPAICALRHLTSRHQEAEMAQNAVRLHYGLPVVVKLLHPPSHWPLIKATVGLIRNLALCPANHAPLREQGAIPRLVQLLVRAHQDTQRRTSMGGTQQQFVEGVRMEEIVEGCTGALHILARDVHNRIVIRGLNTIPLFVQLLYSPIENIQRVAAGVLCELAQDKEAAEAIEAEGATAPLTELLHSRNEGVATYAAAVLFRMSEDKPQDYKKRLSVELTSSLFRTEPMAWNETADLGLDIGAQGEPLGYRQDDPSYRSFHSGGYGQDALGMDPMMEHEMGGHHPGADYPVDGLPDLGHAQDLMDGLPPGDSNQLAWFDTDL
partner: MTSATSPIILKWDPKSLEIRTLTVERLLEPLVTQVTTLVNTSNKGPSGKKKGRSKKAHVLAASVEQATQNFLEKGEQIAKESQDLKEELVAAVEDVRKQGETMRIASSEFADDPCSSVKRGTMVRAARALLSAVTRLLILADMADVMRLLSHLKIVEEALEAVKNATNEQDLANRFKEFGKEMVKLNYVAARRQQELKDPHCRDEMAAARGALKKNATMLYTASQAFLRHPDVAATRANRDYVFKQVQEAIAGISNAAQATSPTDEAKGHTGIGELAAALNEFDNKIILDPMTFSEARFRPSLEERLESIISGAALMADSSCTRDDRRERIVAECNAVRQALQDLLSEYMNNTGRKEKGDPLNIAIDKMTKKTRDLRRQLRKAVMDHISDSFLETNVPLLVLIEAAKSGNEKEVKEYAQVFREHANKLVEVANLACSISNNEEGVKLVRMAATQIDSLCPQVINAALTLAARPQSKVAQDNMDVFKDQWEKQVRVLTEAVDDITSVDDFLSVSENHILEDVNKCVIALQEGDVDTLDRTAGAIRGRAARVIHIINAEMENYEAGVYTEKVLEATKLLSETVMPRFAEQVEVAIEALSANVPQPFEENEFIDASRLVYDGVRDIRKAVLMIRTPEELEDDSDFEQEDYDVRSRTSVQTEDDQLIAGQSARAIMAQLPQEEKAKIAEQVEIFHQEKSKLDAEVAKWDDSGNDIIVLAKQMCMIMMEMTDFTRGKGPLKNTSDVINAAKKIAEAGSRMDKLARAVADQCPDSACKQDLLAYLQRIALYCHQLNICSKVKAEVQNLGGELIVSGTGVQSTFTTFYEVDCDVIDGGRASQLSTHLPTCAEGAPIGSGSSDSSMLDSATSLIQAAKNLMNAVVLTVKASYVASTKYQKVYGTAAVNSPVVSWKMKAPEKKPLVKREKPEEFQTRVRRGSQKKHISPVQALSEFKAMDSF

Variants of: B1
Details: with ctna2_human CTNNA2, P26232

effect of a mutation on the interaction	Variant
disrupting interaction strength	L132A
